From publication PMC12046049 (2025)

T1: HSPB5ACD (α-crystallin domain of HSPB5) (human)
T1 chain: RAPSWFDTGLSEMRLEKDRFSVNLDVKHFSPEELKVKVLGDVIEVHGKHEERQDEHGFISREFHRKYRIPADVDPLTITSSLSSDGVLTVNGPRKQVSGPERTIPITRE

B1: HSPB5 C-terminal peptide (cognate peptide of HSPB5ACD) (peptide)
chain: ERTIPITRE
modifications: Limits are not printed. 156-164, containing the IPI motif, is taken by convention from the peptide in the HSPB5 ACD-peptide structure PDB 4M5S; check residues come from the IPI motif, not numbered in the text. Terminal chemistry not stated.

Experiments:
[1] = target: HSPB7ACD (α-crystallin domain, residues 78-162 of isoform 2) (human, UniProt Q9UBY9-2 78-162)
[2] = target: HSPB1ACD (α-crystallin domain of HSPB1) (human)
HSPB1ACD (α-crystallin domain of HSPB1) (human), sequence (chain, as listed by the source): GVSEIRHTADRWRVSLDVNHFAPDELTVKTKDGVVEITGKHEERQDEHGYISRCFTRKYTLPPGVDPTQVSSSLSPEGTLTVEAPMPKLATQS

[3] = target: T1, HSPB5ACD (α-crystallin domain of HSPB5)

| Binder | Kd [1] [µM] | Kd [2] [µM] | Kd [3] [µM] |
| --- | --- | --- | --- |
| ITIPVTFE [HSPB1 C-terminal peptide (cognate peptide of HSPB1ACD)] | 109 |  |  |
| TFRTEIKI [HSPB7 C-terminal peptide (residues 168-175, TFRTEIKI)] | 378 | 559 | 186 |
| B1 | 71 |  | 23 |
